Experimental data from patent US20230134571A1 (INTERNATIONAL AIDS VACCINE INITIATIVE, published 2023).

B1: ePGDM13 (antibody, V domains shown)
VH: QAQLVQSGPEVRKPGTSVKVSCKNPGNTLTTYDLHWVRQVPGQGLQWMGWISHEGDKKVIVERFKAKVTIDWDRSTNTAYLQLSGLTSEDTAVYYCAKGSKHRLRDYALYDEDGALNWAVDVDYLANLEFWGQGTAVTVSS
VL: DIVLTQSPLSLSVTPGESASISCKSSHSLQHGDRNNYLAWYVQKPGRSPQLLLDLASERASGVPDRFSGSGSEKDFTLKISRVETEDVGTYYCMQGRESPWTFGQGTKVDIK
B2: ePGDM9 (antibody, V domains shown)
VH: QAQLVQSGPEVRKPGTSVKVSCKNPGNTLTTYDLHWVRQVPGQGLQWMGWISHEGDKKVIVERFKAKVTIDWDRSTNTAYLQLSGLTSEDTAVYYCAKGSKHRLRDYALYDEDGALNWAVDVDYLANLEFWGQGTAVTVSS
VL: DIVLTQSPLSLSVTPGESASISCKSSQSLIHGDRNNYLAWYVQKPGRSPQLLIDLASERASGVPDRFSGSGSRKDFTLKISRVETEDVGTYYCMQGRESPWTFGQGTKVDIK
B3: PGDM1400 (antibody, V domains shown)
VH: QVHLTQSGPEVRKPGTSVKVSCKAPGNTLKTYDLHWVRSVPGQGLQWMGWISHEGDKKVIVERFKAKVTIDWDRSTNTAYLQLSGLTSGDTAVYYCAKGSKHRLRDYALYDDDGALNWAVDVDYLSNLEFWGQGTAVTVSS
VL: DFVLTQSPHSLSVTPGESASISCKSSHSLIHGDRNNYLAWYVQKPGRSPQLLIYLASSRASGVPDRFSGSGSDKDFTLKISRVETEDVGTYYCMQGRESPWTFGQGTKVDIK
B4: ePGDM5 (antibody, V domains shown)
VH: QAQLVQSGPEVRKPGTSVKVSCKNPGNTLTTYDLHWVRQVPGQGLQWMGWISHEGDKKVIVERFKAKVTIDWDRSTNTAYLQLSGLTSEDTAVYYCAKGSKHRLRDYALYDEDGALNWAVDVDYLANLEFWGQGTAVTVSS
VL: DFVLTQSPLSLSVTPGESASISCKSDHSLQHGDRNNYLAWYVQKPGRSPQLLIDLASERASGVPDRFSGSGSRKDFTLKIDRVEAEDVGTYYCMQGRESPWTFGQGTKVDIK

Key:
Assay in all cases: cell-based or functional assay
[1] = target: HIV Env of isolate Q259.d2.17 (clade A) (HIV)
[2] = target: HIV Env of isolate 6041.v3.c23 (clade AC) (HIV)
[3] = target: HIV Env of isolate 6545.v4.c1 (clade AC) (HIV)
[4] = target: HIV Env of isolate BJOX009000.02.4 (clade AE) (HIV)
[5] = target: HIV Env of isolate BJOX015000.11.5 (clade AE) (HIV)
[6] = target: HIV Env of isolate BJOX028000.10.3 (clade AE) (HIV)
[7] = target: HIV Env of isolate C4118.c09 (clade AE) (HIV)
[8] = target: HIV Env of isolate R3265.c06 (clade AE) (HIV)
[9] = target: HIV Env of isolate 928-28 (clade AG) (HIV)
[10] = target: HIV Env of isolate T211-9 (clade AG) (HIV)
[11] = target: HIV Env of isolate T263-8 (clade AG) (HIV)
[12] = target: HIV Env of isolate 6244_13_B5_4576 (clade B) (HIV)
[13] = target: HIV Env of isolate 0260.v5.c36 (clade A) (HIV)
[14] = target: HIV Env of isolate 1012_11_TC21_3257 (clade B) (HIV)
[15] = target: HIV Env of isolate 1054_07_TC4_1499 (clade B) (HIV)
[16] = target: HIV Env of isolate SC05_8C11_2344 (clade B) (HIV)
[17] = target: HIV Env of isolate SC422661.8 (clade B) (HIV)
[18] = target: HIV Env of isolate 1394C9G1(Rev-) (clade C) (HIV)
[19] = target: HIV Env of isolate BF1266.431a (clade C) (HIV)
[20] = target: HIV Env of isolate Ce2060_G9 (clade C) (HIV)

| Binder | IC50 (µg/ml) with constrains [1] [µg/mL] | IC80 (µg/ml) with constrains [1] [µg/mL] | IC50 (µg/ml) with constrains [2] [µg/mL] | IC80 (µg/ml) with constrains [2] [µg/mL] | IC50 (µg/ml) with constrains [3] [µg/mL] | IC80 (µg/ml) with constrains [3] [µg/mL] | IC50 (µg/ml) with constrains [4] [µg/mL] | IC80 (µg/ml) with constrains [4] [µg/mL] | IC50 (µg/ml) with constrains [5] [µg/mL] | IC80 (µg/ml) with constrains [5] [µg/mL] | IC50 (µg/ml) with constrains [6] [µg/mL] | IC80 (µg/ml) with constrains [6] [µg/mL] | IC80 (µg/ml) with constrains [7] [µg/mL] | IC50 (µg/ml) with constrains [8] [µg/mL] | IC80 (µg/ml) with constrains [8] [µg/mL] | IC50 (µg/ml) with constrains [9] [µg/mL] | IC80 (µg/ml) with constrains [9] [µg/mL] | IC50 (µg/ml) with constrains [10] [µg/mL] | IC80 (µg/ml) with constrains [10] [µg/mL] | IC50 (µg/ml) with constrains [11] [µg/mL] | also measured |
| --- | --- | --- | --- | --- | --- | --- | --- | --- | --- | --- | --- | --- | --- | --- | --- | --- | --- | --- | --- | --- | --- |
| B1 | 0.037 | 0.15 | 0.007 | 0.029 | 0.076 | 0.305 | 0.265 | 1.06 | 1.72 | 6.86 | 0.035 | 0.139 | 0.005 | 0.026 | 0.104 | 0.019 | 0.077 | 0.028 | 0.113 | 0.025 | IC50 (µg/ml) with constrains [7]: 0.001 µg/mL; IC50 (µg/ml) with constrains [12]: 30.8 µg/mL; IC50 (µg/ml) with constrains [13]: 0.025 µg/mL; IC80 (µg/ml) with constrains [13]: 0.098 µg/mL; IC50 (µg/ml) with constrains [14]: 0.065 µg/mL; IC50 (µg/ml) with constrains [15]: > 100 µg/mL; IC50 (µg/ml) with constrains [16]: 2.36 µg/mL; IC50 (µg/ml) with constrains [17]: 1.56 µg/mL; IC50 (µg/ml) with constrains [18]: 0.003 µg/mL; IC50 (µg/ml) with constrains [19]: 0.004 µg/mL; IC50 (µg/ml) with constrains [20]: 0.018 µg/mL |
| B2 | 0.012 | 0.048 | 0.002 | 0.007 | 0.041 | 0.164 | 0.234 | 0.936 | 0.958 | 3.83 | 0.019 | 0.078 | 0.005 | 0.019 | 0.078 | 0.027 | 0.108 | 0.02 | 0.081 | 0.015 | IC50 (µg/ml) with constrains [7]: 0.001 µg/mL; IC50 (µg/ml) with constrains [12]: 12.6 µg/mL; IC50 (µg/ml) with constrains [13]: 0.018 µg/mL; IC80 (µg/ml) with constrains [13]: 0.073 µg/mL; IC50 (µg/ml) with constrains [14]: 0.042 µg/mL; IC50 (µg/ml) with constrains [15]: > 100 µg/mL; IC50 (µg/ml) with constrains [16]: 1.06 µg/mL; IC50 (µg/ml) with constrains [17]: 1.33 µg/mL; IC50 (µg/ml) with constrains [18]: 0.001 µg/mL; IC50 (µg/ml) with constrains [19]: 0.002 µg/mL; IC50 (µg/ml) with constrains [20]: 0.134 µg/mL |
| B3 | 0.068 | 0.271 | 0.016 | 0.064 | 0.148 | 0.594 | 1.1 | 4.42 | 1.05 | 4.21 | 0.121 | 0.483 | 0.006 | 0.019 | 0.075 | 0.069 | 0.277 | 0.058 | 0.234 | 0.02 | IC50 (µg/ml) with constrains [7]: 0.002 µg/mL; IC50 (µg/ml) with constrains [12]: > 100 µg/mL; IC50 (µg/ml) with constrains [13]: 0.035 µg/mL; IC80 (µg/ml) with constrains [13]: 0.14 µg/mL; IC50 (µg/ml) with constrains [14]: 0.076 µg/mL; IC50 (µg/ml) with constrains [15]: > 100 µg/mL; IC50 (µg/ml) with constrains [16]: 4.46 µg/mL; IC50 (µg/ml) with constrains [17]: 15.7 µg/mL; IC50 (µg/ml) with constrains [18]: 0.003 µg/mL; IC50 (µg/ml) with constrains [19]: 0.006 µg/mL; IC50 (µg/ml) with constrains [20]: 0.025 µg/mL |
| B4 | 0.013 | 0.051 | 0.005 | 0.021 | 0.043 | 0.17 | 0.296 | 1.18 | 1.1 | 4.39 | 0.021 | 0.086 | 0.002 | 0.028 | 0.113 | 0.031 | 0.125 | 0.025 | 0.099 | 0.019 | IC50 (µg/ml) with constrains [12]: 18.9 µg/mL; IC50 (µg/ml) with constrains [13]: 0.021 µg/mL; IC80 (µg/ml) with constrains [13]: 0.084 µg/mL; IC50 (µg/ml) with constrains [14]: 0.076 µg/mL; IC50 (µg/ml) with constrains [15]: > 100 µg/mL; IC50 (µg/ml) with constrains [16]: 3.62 µg/mL; IC50 (µg/ml) with constrains [17]: 1.33 µg/mL; IC50 (µg/ml) with constrains [18]: 0.002 µg/mL; IC50 (µg/ml) with constrains [19]: 0.004 µg/mL; IC50 (µg/ml) with constrains [20]: 0.011 µg/mL |
